We go through one molecule from patent US20240287166A1 (published 2024).

The target in the experiment is T1, CSP on P. falciparum sporozoites (Plasmodium falciparum, UniProt P19597 19-374).
T1 construct: whole, on cells; also called P. falciparum sporozoites, which present CSP in its native conformation
The experiment in a line: sporozoite ELISA, mouse sera Day 7 (FIG. 6D). In general terms: In an ELISA, binding on a coated surface is turned into a signal by an enzyme label.

T1 sequence (P19597 19-374): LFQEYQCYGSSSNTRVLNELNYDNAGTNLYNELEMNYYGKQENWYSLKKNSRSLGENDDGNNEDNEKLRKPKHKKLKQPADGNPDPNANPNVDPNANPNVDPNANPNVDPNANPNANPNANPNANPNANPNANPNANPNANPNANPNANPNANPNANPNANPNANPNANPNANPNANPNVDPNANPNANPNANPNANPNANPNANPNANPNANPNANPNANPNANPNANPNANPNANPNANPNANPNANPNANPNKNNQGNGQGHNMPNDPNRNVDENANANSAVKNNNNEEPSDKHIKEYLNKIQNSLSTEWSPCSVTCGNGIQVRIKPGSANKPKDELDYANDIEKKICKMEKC

B1: 10e DMAb-2 (antibody, human IgG1, lambda, V domains shown)
VH: QVQLVESGGGVVQPGRSLRLSCAASGFAFSNYGMHWVRQAPGKGLEWVAVIWHDGSLKYYTQSVKGRFTISRDNSKNTLYLQMNSLRAEDTAVYYCTVWYLETPDDGFDIWGQGTMVTVSS
VL: QLVLTQPPSASASLGVSVTLTCTLSHGHTSKAIAWHQQQPGKGPRYLMKVNSDGSHTKGAAVPDRFSGSTSGAERHFTISNLQSDDEADYYCQAWDSGIWVFGGGTKLTVLG
notes: also called MGU10-based engineered DMAb 2; 10e DMAb-2 (MGU10 VH-1 / MGU10 VL)
Turning to B1, the binding result is on record as “binds”.
